These results are taken from article doi:10.1101/2023.10.05.561114, “Conditional Requirement for Dimerization of the Membrane-Binding Module of BTK” (bioRxiv, 2023).

This data set deals with the molecule itself. The experiment in a line: fluorescence correlation spectroscopy (FCS); protein adsorbed on supported lipid bilayers with 96% DOPC and 4% PIP3; two-dimensional diffusion rate measured against surface density; fit to a 2D diffusion model; imaging buffer HBSS with 0.01% w/v beta-casein, with scavenging mixture.

B1: BTK PH–TH module (residues 1–171), wild type, with C-terminal mNeonGreen (domain or fragment, human, UniProt Q06187 1-171, looked up)
chain: MAAVILESIFLKRSQQKKKTSPLNFKKRLFLLTVHKLSYYEYDFERGRRGSKKGSIDVEKITCVETVVPEKNPPPERQIPRRGEESSEMEQISIIERFPYPFQVVYDEGPLYVFSPTEELRKRWIHQLKNVIRYNSDLVQKYHPCFWIDGQYLCCSQTAKNAMGCQILENR
notes: Bruton's tyrosine kinase (BTK), human, pleckstrin-homology and tec-homology domains (PH–TH module), residues 1–171; ZnCl2 was added during expression; also called PH–TH^WT; source: E. coli BL21-DE3, purified (HisTrap, SUMO protease cleavage, second HisTrap, Superdex 75); not shown: His6, N-terminal, cleaved; SUMO, N-terminal, cleaved; mNeonGreen, C-terminal, kept
For the protein B1, the binding result is listed as “binds”.
